The values below come from patent publication US8008547B2, “Glyphosate-N-acetyltransferase (GAT) genes” (E.I. duPont de Nemours, priority 2000, dated 2011).

The data set can be described thus: Standard protocol for determination of kcat and KM (continuous spectrophotometric assay, Acetyl CoA hydrolysis at 235 nm). Conditions: purified protein, about 23° C., 0.2 mM acetyl CoA; for Kcat: 20 mM HEPES pH 6.8, 10% ethylene glycol; for Km: pH 6.8, glyphosate 0.125 to 10 mM. The format is biochemical. The essentials:
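KM from initial rates over 0.125–10 mM glyphosate, fitted by Lineweaver-Burke transformation of Michaelis-Menten; kcat/KM computed as kcat divided by KM. Continuous spectrophotometric read of acetyl-CoA hydrolysis at 235 nm.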

B1: SEQ ID NO: 504: GAT polypeptide (protein)
chain: MIEVKPINAEDTYELRHRVLRPNQPLEVCMYETDLLRGAFHLGGYYRGKLISIASFHQAEHSELQGQKQYQLRGMATLEGYREQKAGSSLIKHAEEILRKRGADLLWCNARTSASGYYKKLGFSEQGEVFETPPVGPHILMYKRLT
modifications: 8_1G2
notes: GAT polypeptide
In turn, B1 came in with a Kcat of 1.124 s⁻¹.

B2: SEQ ID NO: 505: GAT polypeptide (protein)
chain: MLEVKPINAEDTYELRHKILRPNQPIEVCMYETDLLRGAFHLGGYYRGKLISIASFHQAEHSELQGQKQYQLRGMATLEGYREQKAGSSLIRHAEEILRKRGADLLWCNARTSASGYYKKLGFSEQGEIFDTPPVGPHILMYKRIT
modifications: 8_1G3
notes: GAT polypeptide
The molecule B2 showed a Kcat of 1.815 s⁻¹.

B3: SEQ ID NO: 507: GAT polypeptide (protein)
chain: MLEVKPINAEDTYELRHKILRPNQPLEVCMYETDLLRGAFHLGGYYRGKLISIASFHQAEHSDLQGQKQYQLRGMATLEGYREQKAGSSLIRHAEEILRKRGADLLWCNARTSASGYYKKLGFSEQGEVFDTPPVGPHILMYKRLT
modifications: 8_1H9
notes: GAT polypeptide
B3 yielded a Kcat of 1.306 s⁻¹.

B4: SEQ ID NO: 506: GAT polypeptide (protein)
chain: MLEVKPINAEDTYELRHRILRPNQPIEVCMYETDLLRGAFHLGGFYRGKLISIASFHQAEHSELQGQKQYQLRGMATLEGYREQKAGSSLIKHAEEILRKRGADMLWCNARTSASGYYKKLGFSEQGEIFETPPVGPHILMYKRLT
modifications: 8_1H7
notes: GAT polypeptide
As for B4, the Kcat worked out at 1.6873 s⁻¹.

B5: SEQ ID NO: 285: GAT polypeptide (protein)
chain: MIEVKPINAEDTYEIRHRILRPNQPLEACMYETDLLGGAFHLGGYYQGKLISIASFHKAEHSELEGQKQYQLRGMATLEGYREQKAGSTLIRHAEELLRKKGADLLWCNARTSVRGYYEKLGFSEQGGVYDIPPIGPHILMYKKLT
modifications: 11H3
notes: GAT polypeptide
Turning to B5, the Kcat is 0.02 s⁻¹ and the Km (in general, the substrate concentration at which the rate is half of its maximum) amounted to 1400 µM.

B6: SEQ ID NO: 281: GAT polypeptide (protein)
chain: MIEVKPINAEDTYEIRHRILRPNQPLEACKYETDLLGGTLHLGGYYRGKLVSIASFHQAEHPELEGQKQYQLRGMATLEGYREQKAGSTLIRHAEELLRKKGADLLWCNARTSASGYYKKLGFSEQGEVYDIPPVGPHILMYKKLT
modifications: 10_6D11
notes: GAT polypeptide
Turning to B6, the Kcat was 1.04 s⁻¹ and the Michaelis constant (Km) is 1200 µM.

B7: SEQ ID NO: 282: GAT polypeptide (protein)
chain: MIEVKPINAEDTYEIRHRILRPNQPLEACKYETDLLGGAFHLGGYYRGKLISIASFHQAEHPELEGQKQYQLRGMATLEGYREQKAGSTLIRHAEELLRKKGADLLWCNARTSASGYYKKLGFSEQGGVYDIPPVGPHILMYKKLT
modifications: 10_8C6
notes: GAT polypeptide
Consider B7, for which the Kcat was determined as 0.362 s⁻¹ and the Km came to 700 µM.

B8: SEQ ID NO: 288: GAT polypeptide (protein)
chain: MIEVKPINAEDTYEIRHRILRPNQPLEACKYETDLLGGTFHLGGYYRGKLISIASFHQAEHPELEGQKQYQLRGMATLEGYREQKAGSTLIRHAEELLRKKGADLLWCNARTSASGYYKKLGFSEQGGVYDIPPVGPHILMYKKLT
modifications: 12_3F1
notes: GAT polypeptide
With B8, the Kcat amounted to 0.735 s⁻¹ and the Km came to 900 µM.

B9: SEQ ID NO: 290: GAT polypeptide (protein)
chain: MIEVKPINAEDTYEIRHRILRPNQPLEACKYETDLLGGTFHLGGYYRGKLVSIASFHQAEHPELEGQKQYQLRGMATLEGYREQKAGSTLIRHAEELLRKKGADLLWCNARTSASGYYKKLGFSEQGGVYDIPPVGPHILMYKKLT
modifications: 12_6A10
notes: GAT polypeptide
On to B9, for which the Kcat was 0.912 s⁻¹ and the Km came to 1100 µM.

B10: SEQ ID NO: 509: GAT polypeptide (protein)
chain: MIEVKPINAEDTYEIRHRILRPNQPLEACMYETDLLGGTFHLGGYYRGKLISIASFHQAEHSELEGQKQYQLRGMATLEGYREQKAGSTLIRHAEELLRKKGADLLWCNARTFVSGYYEKLGFSEQGEVYDIPPIGPYILMYEKLT
modifications: GAT1_24G3
notes: GAT polypeptide
Turning to B10, the Kcat worked out at 0.0817 s⁻¹ and the Km is 3800 µM.

B11: SEQ ID NO: 287: GAT polypeptide (protein)
chain: MIEVKPINAEDTYEIRHRILRPNQPLEACKYETDLLGGTFHLGGYYRGKLVSIASFHQAEHPELEGQKQYQLRGMATLEGYREQKAGSTLIRHAEELLRKKGADLLWCNARTSASGYYKKLGFSEQGEVYDTPPVGPHILMYKKLT
modifications: 12_2G9
notes: GAT polypeptide
Regarding B11, the Kcat is 2.523 s⁻¹ and the Km came to 1500 µM.

B12: SEQ ID NO: 514: GAT polypeptide (protein)
chain: MIEVKPINAEDTYEIRHRILRPNQPLEACMYETDLLGGTFHLGGYYRGKLISIASFHQAEHSELEGQKQYQLRGMATLEGYREQKAGSTLIRHAEELLRKKGADLLWCNARTSVSGYYKKLGFSEQGGVYDIPPIGPHILMYKKLT
modifications: GAT2_21F1
notes: GAT polypeptide
With B12, the Kcat is 0.07 s⁻¹ and the Km came out at 3000 µM.

B13: SEQ ID NO: 512: GAT polypeptide (protein)
chain: MIEVKPINAEDTYEIRHRILRPNQPLEACKYETDLLGGTFHLGGYYRGKLISIASFHNAEHSELEGQKQYQLRGMATLEGYREQKAGSTLIRHAEELLRKKGADLLWCNARTSVSGYYKKLGFSEQGEVYDIPPIGPHILMYKKLT
modifications: GAT2_15G8
notes: GAT polypeptide
On to B13, for which the Kcat turned out to be 0.075 s⁻¹ and the Km was 2800 µM.

B14: SEQ ID NO: 286: GAT polypeptide (protein)
chain: MIEVKPINAEDTYEIRHRILRPNQPLEACKYETDLLGGTFHLGGYYRGKLISIASFHQAEHPELEGQKQYQLRGMATLEGYREQKAGSTLIRHAEELLRKKGADLLWCNARTSASGYYKKLGFSEQGEVHDIPPTGPHILMYKKLT
modifications: 12_1F9
notes: GAT polypeptide
On to B14, for which the Kcat turned out to be 1.34 s⁻¹ and the Km worked out at 3000 µM.

B15: SEQ ID NO: 508: GAT polypeptide (protein)
chain: MIEVKPINAEDTYEIRHRILRPNQPLEACKYETDLLGGTFHLGGYYRGKLISIASFHNAEHSELEGQKQYQLRGMATLEGYREQKAGSTLIRHAEELLRKKGADLLWCNARTSVSGYYKKLGFSEQGEVYDIPPIGPHILMYKKLT
modifications: GAT1_21F12
notes: GAT polypeptide
With B15, the Kcat came out at 0.09 s⁻¹ and the Km was 4600 µM.

B16: SEQ ID NO: 283: GAT polypeptide (protein)
chain: MIEVKPINAEDTYEIRHRILRPNQPLEACKYETDLLGGTFHLGGYYQGKLISIASFHQAEHSELEGQKQYQLRGMATLEGYREQKAGSTLIRHAEELLRKKGADLLWCNARTSVSGYYKKLGFSEQGGVYDIPPIGPHILMYKKLT
modifications: 11C3
notes: GAT polypeptide
For the molecule B16, the Kcat is 0.0467 s⁻¹ and the Km is 3100 µM.

B17: SEQ ID NO: 513: GAT polypeptide (protein)
chain: MIEVKPINAEDTYEIRHRILRPNQPLEACMYETDLLGGTFHLGGYYRGKLISIASFHQAEHPELEGQKQYQLRGMATLEGYREQKAGSTLIRHAEELLRKKGADLLWCNARTSVSGYYEKLGFSEQGEVCDIPPIGPHILMYKKLT
modifications: GAT2_19H8
notes: GAT polypeptide
As to B17, the Kcat turned out to be 0.0683 s⁻¹ and the Km is 2800 µM.

B18: SEQ ID NO: 284: GAT polypeptide (protein)
chain: MIEVKPINAEDTYEIRHRILRPNQPLEACMYETDLLGGTFHLGGYYQGKLISIASFHQAEHSELEGQKQYQLRGMATLEGYREQKAGSTLIRHAEELLRKKGADLLWCNARTSASGYYEKLGFSEQGGVYDIPPIGPHILMYKKLA
modifications: 11G3
notes: GAT polypeptide
Turning to B18, the Kcat was 0.26 s⁻¹ and the Km was 1700 µM.

B19: SEQ ID NO: 289: GAT polypeptide (protein)
chain: MIEVKPINAEDTYEIRHRILRPNQPLEACKYETDLLGGTFHLGGYYRGKLISIASFHQAEHPELEGQKQYQLRGMATLEEYREQKAGSTLIRHAEELLRKKGADLLWCNARTSASGYYKKLGFSEQGEVYDAPPTGPHILMYKKLT
modifications: 12_5C10
notes: GAT polypeptide
Turning to B19, the Kcat came out at 1.49 s⁻¹ and the Km stood at 1500 µM.

B20: SEQ ID NO: 511: GAT polypeptide (protein)
chain: MIEVKPINAEDTYEIRHRILRPNQPLEACMYETDLLGGTFHLGGYYRGKLISIASFHQAEHPELEGQKQYQLRGMATLEGYREQKAGSTLIRHAEELLRKKGADLLWCNARTSVSGYYEKLGFSEQGEVYDIPPIGPHILMYKKLT
modifications: GAT1_32G1
notes: GAT polypeptide
In the case of B20, the Kcat is 0.075 s⁻¹ and the Km is 3300 µM.

B21: SEQ ID NO: 510: GAT polypeptide (protein)
chain: MIEVKPINAEDTYEIRHRILRPNQPLEACMYETDLLGGTFHLGGYYRGKLISIASFHQAEHSELEGQKQYQLRGMATLEGYREQKAGSTLIRHAEELLRKKGADLLWCNARTSVSGYYKKLGFSEQGGVCDIPPIGPHILMYKKLA
modifications: GAT1_29G1
notes: GAT polypeptide
Regarding B21, the Kcat is 0.103 s⁻¹ and the Km was determined as 4000 µM.

B22: SEQ ID NO: 291: GAT polypeptide (protein)
chain: MIEVKPINAEDTYEIRHRILRPNQPLEACMYETDLLGGTFHLGGYYRGKLISIASFHQAEHPELEGQKQYQLRGMATLEEYREQKAGSTLIRHAEELLRKKGADLLWCNARTSASGYYKKLGFSEQGGVYDIPPVGPHILMYKKLT
modifications: 12_6D1
notes: GAT polypeptide
Turning to B22, the Kcat was determined as 0.817 s⁻¹ and the Km came to 1200 µM.
